This note sets out measurements from article doi:10.1101/2024.07.31.606000 (bioRxiv, 2024).

One assay addresses complement C8 (UniProt P07357 31-584; P07358 55-591; P07360 21-202). Description: SPR.
The next assay deals with complement factor H (UniProt P08603 19-1231). As to the kind of experiment: SPR. (SPR reads the build-up and loss of mass on a sensor chip optically.)
Sequence of complement factor H (P08603 19-1231): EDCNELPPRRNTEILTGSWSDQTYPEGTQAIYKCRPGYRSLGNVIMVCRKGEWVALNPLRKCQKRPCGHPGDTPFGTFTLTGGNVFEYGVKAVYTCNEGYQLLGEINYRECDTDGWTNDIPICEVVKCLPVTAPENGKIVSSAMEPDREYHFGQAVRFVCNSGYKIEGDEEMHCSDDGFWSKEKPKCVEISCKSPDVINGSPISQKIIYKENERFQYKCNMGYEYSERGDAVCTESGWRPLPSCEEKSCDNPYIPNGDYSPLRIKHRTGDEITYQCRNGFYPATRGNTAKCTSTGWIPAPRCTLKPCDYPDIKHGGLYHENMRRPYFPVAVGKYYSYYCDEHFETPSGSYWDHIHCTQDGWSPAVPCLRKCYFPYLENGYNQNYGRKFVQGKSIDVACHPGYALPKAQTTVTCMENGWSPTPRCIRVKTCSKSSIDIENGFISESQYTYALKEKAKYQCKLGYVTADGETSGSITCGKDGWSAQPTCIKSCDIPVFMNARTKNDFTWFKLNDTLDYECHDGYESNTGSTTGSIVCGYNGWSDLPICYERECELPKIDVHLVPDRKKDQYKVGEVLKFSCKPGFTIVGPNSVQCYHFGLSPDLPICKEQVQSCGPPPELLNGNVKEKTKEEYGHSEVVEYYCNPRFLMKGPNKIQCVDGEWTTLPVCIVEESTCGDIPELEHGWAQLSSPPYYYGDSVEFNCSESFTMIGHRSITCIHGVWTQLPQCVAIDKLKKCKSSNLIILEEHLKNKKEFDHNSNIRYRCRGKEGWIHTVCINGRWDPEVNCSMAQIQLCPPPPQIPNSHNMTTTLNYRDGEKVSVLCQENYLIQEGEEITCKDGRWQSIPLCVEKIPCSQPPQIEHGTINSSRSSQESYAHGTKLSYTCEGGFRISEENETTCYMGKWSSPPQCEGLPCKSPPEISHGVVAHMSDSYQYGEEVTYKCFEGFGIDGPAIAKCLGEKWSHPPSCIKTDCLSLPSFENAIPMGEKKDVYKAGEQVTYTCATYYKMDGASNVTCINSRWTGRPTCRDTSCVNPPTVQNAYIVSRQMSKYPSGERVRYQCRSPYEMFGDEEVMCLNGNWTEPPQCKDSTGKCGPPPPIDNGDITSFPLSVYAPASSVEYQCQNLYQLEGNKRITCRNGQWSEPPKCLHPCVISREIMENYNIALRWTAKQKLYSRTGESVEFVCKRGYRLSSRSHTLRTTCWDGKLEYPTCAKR

Sequence of complement C8 (P07357 31-584, chain 1 of 3): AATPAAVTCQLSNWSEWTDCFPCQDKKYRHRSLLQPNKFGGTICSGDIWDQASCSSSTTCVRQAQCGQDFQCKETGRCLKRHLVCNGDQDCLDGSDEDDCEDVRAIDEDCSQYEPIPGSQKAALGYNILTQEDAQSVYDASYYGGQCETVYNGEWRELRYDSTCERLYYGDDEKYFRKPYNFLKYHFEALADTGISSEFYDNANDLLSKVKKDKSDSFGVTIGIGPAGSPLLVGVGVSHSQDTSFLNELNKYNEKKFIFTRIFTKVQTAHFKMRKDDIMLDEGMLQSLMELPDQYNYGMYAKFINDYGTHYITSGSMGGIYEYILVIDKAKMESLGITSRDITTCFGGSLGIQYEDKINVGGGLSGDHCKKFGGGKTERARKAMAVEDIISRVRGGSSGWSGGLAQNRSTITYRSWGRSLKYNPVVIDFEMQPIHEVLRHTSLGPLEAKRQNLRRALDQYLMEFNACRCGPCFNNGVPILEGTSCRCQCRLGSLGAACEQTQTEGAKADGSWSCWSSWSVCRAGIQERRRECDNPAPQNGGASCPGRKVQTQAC
Sequence of complement C8 (P07358 55-591, chain 2 of 3): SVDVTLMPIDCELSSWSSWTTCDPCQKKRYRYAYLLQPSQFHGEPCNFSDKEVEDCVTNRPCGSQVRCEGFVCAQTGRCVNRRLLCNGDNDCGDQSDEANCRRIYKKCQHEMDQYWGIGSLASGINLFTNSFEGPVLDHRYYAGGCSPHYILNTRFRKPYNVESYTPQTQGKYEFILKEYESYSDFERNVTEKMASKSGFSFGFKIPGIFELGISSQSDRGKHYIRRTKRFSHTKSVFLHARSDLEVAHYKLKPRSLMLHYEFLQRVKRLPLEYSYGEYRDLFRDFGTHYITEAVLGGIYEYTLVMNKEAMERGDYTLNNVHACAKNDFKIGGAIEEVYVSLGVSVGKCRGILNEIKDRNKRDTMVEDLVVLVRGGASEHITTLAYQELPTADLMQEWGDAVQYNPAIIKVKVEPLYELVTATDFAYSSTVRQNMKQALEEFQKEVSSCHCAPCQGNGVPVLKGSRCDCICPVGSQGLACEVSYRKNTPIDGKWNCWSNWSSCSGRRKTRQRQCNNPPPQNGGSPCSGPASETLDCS
Sequence of complement C8 (P07360 21-202, chain 3 of 3): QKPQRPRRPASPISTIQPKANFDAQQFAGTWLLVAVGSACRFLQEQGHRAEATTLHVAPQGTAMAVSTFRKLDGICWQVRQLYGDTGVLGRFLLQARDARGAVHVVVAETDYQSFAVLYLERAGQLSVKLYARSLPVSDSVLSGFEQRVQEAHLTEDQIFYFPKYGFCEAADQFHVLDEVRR

B1: recombinant full-length thrombospondin-1 (natural protein)
chain: not shown
Broadly, the Kd is the concentration at which binding is half-saturated. High values mean lower affinity, low ones higher affinity. Consider B1, for which the Kd in the assay with complement C8 turned out to be 0.311 µM; in the assay with complement factor H, 0.203 µM.
